Values of other authors as cited in paper PMC10532153, “Interactions of the N- and C-Terminal SH3 Domains of Drosophila Drk with the Proline-Rich Peptides from Sos and Dos” (International Journal of Molecular Sciences, 2023).

Molecular target: T1, Drk-CSH3 (Drosophila melanogaster, UniProt Q08012)
T1 construct: its N- and C-terminal SH3 domains (Drk-NSH3 and Drk-CSH3, respectively); made in house
Conditions: previous paper on Drk-CSH3; read-out: Kd for Drk-CSH3, nine-residue (“shorter”) Dos peptides
Excerpt: Table 1 The calculated dissociation constants (Kds) for Sos- and Dos-derived peptides.

T1 sequence (Q08012 152-211 limits assumed): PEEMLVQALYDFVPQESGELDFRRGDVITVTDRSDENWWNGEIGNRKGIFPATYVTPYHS

| Kd | Sequence |
| --- | --- |
| ~1.4 mM | PPVNRKLKP [shorter Dos-S1] |
| ~4.8 mM | PSVDRKCKP [shorter Dos-S2] |
